Columns and labels:
[1] = tested on: T1, Cc1cn([C@H]2C[C@H](O)[C@@H](COP(=O)(O)OP(=O)(O)O[C@H]3O[C@@H](C)[C@H](O)[C@@H](O)[C@H]3O)O2)c(=O)[nH]c1=O; test: Western blot quantification (anti-Arg-Rha) of EF-P rhamnosylation; type: biochemical, Pseudomonas putida; conditions: co-substrate unmodified P. putida EF-P 2.5 µM, 100 mM NaPi pH 7.6, 30°C
T1 construct: full-length (residues 1 to 377), 43 kDa, His6-tagged (C-terminal from pBAD33-earPPpu, N-terminal from pACYC-DUET for crystallization), expressed in E. coli; monomer

[2] = tested on: T1, Cc1cn([C@H]2C[C@H](O)[C@@H](COP(=O)(O)OP(=O)(O)O[C@H]3O[C@@H](C)[C@H](O)[C@@H](O)[C@H]3O)O2)c(=O)[nH]c1=O; test: as above; type: biochemical, Pseudomonas putida; conditions: co-substrate unmodified P. putida EF-P 2.5 µM, 0.5 µM EarP, 100 mM NaPi pH 7.6, 30°C
Source text: Western blot quantification (anti-Arg-Rha) of EF-P rhamnosylation on EarPPpu (EF-P-arginine rhamnosyltransferase EarP) | when we measured the kinetics of the F191A^EarP and Y193A^EarP variants

[3] = PcadBA::lacZ β-galactosidase, E. coli Δefp; conditions: glycan lost; control: EF-PPpu coproduced with wild-type EarPPpu
[4] = target: T2, EarPPpu, EarP from Pseudomonas putida KT2440, purified His6-tagged protein (Pseudomonas putida KT2440, UniProt Q88LS1 2-377); test: NMR titration; 15N-labelled EF-P (150 µM unmodified or 41 µM rhamnosylated) titrated with unlabelled EarP to a 1:2 EF-P/EarP molar ratio, 1H-15N HSQC, 298 K, 100 mM NaPi pH 7.6, 50 mM NaCl, 5 mM DTT; conditions: both partners purified
T2 construct: EarP, Pseudomonas putida KT2440, 43 kDa; domains are told as aa 1-153, 184-361 and 362-377; also called WT^EarP; source: E. coli LMG194 (pBAD33-earPPpu) or E. coli BL21(DE3) (pACYC-DUET-earPPpu), purified (Ni-NTA)
T2 sequence: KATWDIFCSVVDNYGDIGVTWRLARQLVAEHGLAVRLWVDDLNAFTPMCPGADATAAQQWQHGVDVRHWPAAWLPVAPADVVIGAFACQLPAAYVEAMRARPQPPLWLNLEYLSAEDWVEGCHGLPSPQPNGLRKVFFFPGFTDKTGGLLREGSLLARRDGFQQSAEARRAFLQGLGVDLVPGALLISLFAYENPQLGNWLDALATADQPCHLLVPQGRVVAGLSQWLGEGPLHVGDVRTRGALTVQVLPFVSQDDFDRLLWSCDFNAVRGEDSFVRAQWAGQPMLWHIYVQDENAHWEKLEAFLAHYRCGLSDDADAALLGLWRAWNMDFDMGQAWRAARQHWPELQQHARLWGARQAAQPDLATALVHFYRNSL

[5] = substrate: Cc1cn([C@H]2C[C@H](O)[C@@H](COP(=O)(O)OP(=O)(O)O[C@H]3O[C@@H](C)[C@H](O)[C@@H](O)[C@H]3O)O2)c(=O)[nH]c1=O; test: Western blot quantification (anti-Arg-Rha) of EF-P rhamnosylation; type: biochemical, Pseudomonas putida; conditions: co-substrate unmodified P. putida EF-P 2.5 µM, 0.1 µM EarP, 100 mM NaPi pH 7.6, 30°C, 20 s
[6] = lowest-mass SEC fraction of a partly unfolded, aggregating variant

## EarPPpu (EF-P-arginine rhamnosyltransferase EarP) (Pseudomonas putida KT2440; D274A)
[1]; [6]
  Km: 206 µM
  kcat: 0.0123 s⁻¹

## EarPPpu (EF-P-arginine rhamnosyltransferase EarP) (Pseudomonas putida KT2440; F191A)
[2]
  Km: 810 µM
  kcat: 0.00017 s⁻¹

## EarPPpu (EF-P-arginine rhamnosyltransferase EarP) (Pseudomonas putida KT2440; F252A)
[1]
  Km: 3400 µM

## EarPPpu (EF-P-arginine rhamnosyltransferase EarP) (Pseudomonas putida KT2440; Y193A)
[2]
  Km: 760 µM
  kcat: 0.00017 s⁻¹

B1: EF-PPpu (translation elongation factor EF-P): coproduction with inactive D13AEarP (protein)
parent chain: MKTGKELKPGTVLRIDNDPWLVQKAEFTKSGRNSAIMKTKLKNLLTGYKTETVYGADDKLDDVILDRKEATLSFINGDEYTFMDTTDYTMYELNAEDIEAVLPYIEEGMEDVCEAVFFEGRLVSVELPTTISRKVVYTENAARGDTSGKVMKPAKLANGTEISVADFIQIDEWIDIDTRDNSFKGRSKK
[3]
  other: EF-P translational rescue activity (PcadBA activation): abolishes

B2: rhamnosylated EF-PPpu (EF-P^Rha), purified (natural protein, Pseudomonas putida, UniProt Q88LS0 1-189, looked up)
chain: B1 parent chain
modifications: rhamnosyl-arginine at R32
notes: translation elongation factor EF-P, Pseudomonas putida, rhamnosylated on arginine 32; 15N-labelled for the NMR titration; also called modified EF-P; source: E. coli, cooverproduced with His6-tagged EarPPpu, purified
[4]
  binding result: binds

B3: unmodified EF-PPpu, purified, tag-free (natural protein, Pseudomonas putida, UniProt Q88LS0 1-189, looked up)
chain: B1 parent chain
notes: translation elongation factor EF-P, Pseudomonas putida; 15N-labelled for the NMR titration (grown in M9 minimal medium); source: E. coli BL21(DE3) (pET-SUMO-efpPpu), purified (Ni-NTA, tag removed with His6-Ulp1)
[4]
  binding result: binds

B4: EF-PPpu (translation elongation factor EF-P): coproduction with inactive D17AEarP (protein)
parent chain: B1 parent chain
[3]
  other: EF-P translational rescue activity (PcadBA activation): abolishes

B5: EF-PPpu (translation elongation factor EF-P): coproduction with inactive E273AEarP (protein)
parent chain: B1 parent chain
[3]
  other: EF-P translational rescue activity (PcadBA activation): abolishes

B6: EarPPpu (EF-P-arginine rhamnosyltransferase EarP) (Pseudomonas putida KT2440) (protein)
chain: MKATWDIFCSVVDNYGDIGVTWRLARQLVAEHGLAVRLWVDDLNAFTPMCPGADATAAQQWQHGVDVRHWPAAWLPVAPADVVIGAFACQLPAAYVEAMRARPQPPLWLNLEYLSAEDWVEGCHGLPSPQPNGLRKVFFFPGFTDKTGGLLREGSLLARRDGFQQSAEARRAFLQGLGVDLVPGALLISLFAYENPQLGNWLDALATADQPCHLLVPQGRVVAGLSQWLGEGPLHVGDVRTRGALTVQVLPFVSQDDFDRLLWSCDFNAVRGEDSFVRAQWAGQPMLWHIYVQDENAHWEKLEAFLAHYRCGLSDDADAALLGLWRAWNMDFDMGQAWRAARQHWPELQQHARLWGARQAAQPDLATALVHFYRNSL
notes: full-length (residues 1 to 377), 43 kDa, His6-tagged (C-terminal from pBAD33-earPPpu, N-terminal from pACYC-DUET for crystallization), expressed in E. coli; monomer
[5]
  Km: 53 µM
  kcat: 0.583 s⁻¹
